Measurements published in the supplement of paper PMC9112550, “Optimization of the antimicrobial peptide Bac7 by deep mutational scanning” (BMC Biology, 2022).

Tested on: Escherichia coli TOP10
Test: shrunken log2 fold change of peptide-encoding DNA abundance (4.5 h post-induction vs induction); higher = less antimicrobial activity (less host growth inhibition)
Conditions: time post-induction: 4.5 h; library: site-saturation at positions 5, 18, 19, 20
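Further: peptides expressed intracellularly from a pBAD plasmid library in pooled LB shake-flask culture, induced with 0.3% L-arabinose, DNA abundance read by NGS, three biological replicates, DESeq2 with apeglm shrinkage.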

RRIRSRPPRLPRPRPRPQWVPRP
shrunken log2 fold change: 0.0964

RRIRSRPPRLPRPRPRPQYCPRP
shrunken log2 fold change: -0.0172

RRIRSRPPRLPRPRPRPRAFPRP
shrunken log2 fold change: 0.304

RRIRSRPPRLPRPRPRPRANPRP
shrunken log2 fold change: 0.174

RRIRSRPPRLPRPRPRPRCCPRP
shrunken log2 fold change: -0.00537

RRIRSRPPRLPRPRPRPRCQPRP
shrunken log2 fold change: 0.0737

RRIRSRPPRLPRPRPRPREGPRP
shrunken log2 fold change: 2.98

RRIRSRPPRLPRPRPRPREHPRP
shrunken log2 fold change: 0.152

RRIRSRPPRLPRPRPRPRFLPRP
shrunken log2 fold change: 0.159

RRIRSRPPRLPRPRPRPRHDPRP
shrunken log2 fold change: 0.23

RRIRSRPPRLPRPRPRPRHYPRP
shrunken log2 fold change: -0.172

RRIRSRPPRLPRPRPRPRKHPRP
shrunken log2 fold change: 0.0783

RRIRSRPPRLPRPRPRPRLIPRP
shrunken log2 fold change: 0.288

RRIRSRPPRLPRPRPRPRLWPRP
shrunken log2 fold change: 0.397

RRIRSRPPRLPRPRPRPRPQPRP
shrunken log2 fold change: 0.72

RRIRSRPPRLPRPRPRPRQEPRP
shrunken log2 fold change: -0.0798

RRIRSRPPRLPRPRPRPRQGPRP
shrunken log2 fold change: 0.185

RRIRSRPPRLPRPRPRPRRCPRP
shrunken log2 fold change: 0.359

RRIRSRPPRLPRPRPRPRRSPRP
shrunken log2 fold change: 0.181

RRIRSRPPRLPRPRPRPRSMPRP
shrunken log2 fold change: -0.0644

RRIRSRPPRLPRPRPRPRSNPRP
shrunken log2 fold change: -0.186

RRIRSRPPRLPRPRPRPRTFPRP
shrunken log2 fold change: 0.00214

RRIRSRPPRLPRPRPRPRTVPRP
shrunken log2 fold change: 0.106

RRIRSRPPRLPRPRPRPRYGPRP
shrunken log2 fold change: 0.0513

RRIRSRPPRLPRPRPRPRYMPRP
shrunken log2 fold change: -0.664

RRIRSRPPRLPRPRPRPSAHPRP
shrunken log2 fold change: 0.0639

RRIRSRPPRLPRPRPRPSCTPRP
shrunken log2 fold change: -0.0382

RRIRSRPPRLPRPRPRPSDAPRP
shrunken log2 fold change: 0.0409

RRIRSRPPRLPRPRPRPSDHPRP
shrunken log2 fold change: -0.555

RRIRSRPPRLPRPRPRPSEFPRP
shrunken log2 fold change: -0.306

RRIRSRPPRLPRPRPRPSGHPRP
shrunken log2 fold change: -0.433

RRIRSRPPRLPRPRPRPSGPPRP
shrunken log2 fold change: 0.0577

RRIRSRPPRLPRPRPRPSGQPRP
shrunken log2 fold change: -0.0423

RRIRSRPPRLPRPRPRPSHCPRP
shrunken log2 fold change: 0.079

RRIRSRPPRLPRPRPRPSIDPRP
shrunken log2 fold change: -0.536

RRIRSRPPRLPRPRPRPSKSPRP
shrunken log2 fold change: -0.361

RRIRSRPPRLPRPRPRPSLSPRP
shrunken log2 fold change: -0.0859

RRIRSRPPRLPRPRPRPSLWPRP
shrunken log2 fold change: 0.122

RRIRSRPPRLPRPRPRPSMLPRP
shrunken log2 fold change: -0.3

RRIRSRPPRLPRPRPRPSMSPRP
shrunken log2 fold change: 0.0307

RRIRSRPPRLPRPRPRPSPMPRP
shrunken log2 fold change: -0.132

RRIRSRPPRLPRPRPRPSQFPRP
shrunken log2 fold change: -0.345

RRIRSRPPRLPRPRPRPSQIPRP
shrunken log2 fold change: -0.0773

RRIRSRPPRLPRPRPRPSRQPRP
shrunken log2 fold change: -0.447

RRIRSRPPRLPRPRPRPSSSPRP
shrunken log2 fold change: -0.353

RRIRSRPPRLPRPRPRPSTFPRP
shrunken log2 fold change: -0.109

RRIRSRPPRLPRPRPRPTAQPRP
shrunken log2 fold change: 0.405

RRIRSRPPRLPRPRPRPTAYPRP
shrunken log2 fold change: -0.00955

RRIRSRPPRLPRPRPRPTCPPRP
shrunken log2 fold change: 0.0454

RRIRSRPPRLPRPRPRPTDAPRP
shrunken log2 fold change: 0.236

RRIRSRPPRLPRPRPRPTDRPRP
shrunken log2 fold change: 0.000994

RRIRSRPPRLPRPRPRPTENPRP
shrunken log2 fold change: 0.148

RRIRSRPPRLPRPRPRPTFDPRP
shrunken log2 fold change: 0.0254

RRIRSRPPRLPRPRPRPTFNPRP
shrunken log2 fold change: -0.366

RRIRSRPPRLPRPRPRPTHQPRP
shrunken log2 fold change: 0.417

RRIRSRPPRLPRPRPRPTICPRP
shrunken log2 fold change: -0.126

RRIRSRPPRLPRPRPRPTKKPRP
shrunken log2 fold change: 0.0472

RRIRSRPPRLPRPRPRPTLIPRP
shrunken log2 fold change: -0.0693

RRIRSRPPRLPRPRPRPTMEPRP
shrunken log2 fold change: 0.317

RRIRSRPPRLPRPRPRPTPNPRP
shrunken log2 fold change: 0.306

RRIRSRPPRLPRPRPRPTQPPRP
shrunken log2 fold change: 0.215

RRIRSRPPRLPRPRPRPTQWPRP
shrunken log2 fold change: 0.354

RRIRSRPPRLPRPRPRPTSWPRP
shrunken log2 fold change: 0.239

RRIRSRPPRLPRPRPRPTTTPRP
shrunken log2 fold change: 0.0739

RRIRSRPPRLPRPRPRPTVMPRP
shrunken log2 fold change: 0.00504

RRIRSRPPRLPRPRPRPTWDPRP
shrunken log2 fold change: 0.53

RRIRSRPPRLPRPRPRPTWFPRP
shrunken log2 fold change: -0.216

RRIRSRPPRLPRPRPRPTWQPRP
shrunken log2 fold change: 0.0157

RRIRSRPPRLPRPRPRPTYQPRP
shrunken log2 fold change: -0.0198

RRIRSRPPRLPRPRPRPTYSPRP
shrunken log2 fold change: -0.453

RRIRSRPPRLPRPRPRPVANPRP
shrunken log2 fold change: 0.152

RRIRSRPPRLPRPRPRPVCEPRP
shrunken log2 fold change: 0.369

RRIRSRPPRLPRPRPRPVCYPRP
shrunken log2 fold change: -0.268

RRIRSRPPRLPRPRPRPVDGPRP
shrunken log2 fold change: 0.826

RRIRSRPPRLPRPRPRPVDIPRP
shrunken log2 fold change: 0.147

RRIRSRPPRLPRPRPRPVDQPRP
shrunken log2 fold change: 0.034

RRIRSRPPRLPRPRPRPVFNPRP
shrunken log2 fold change: -0.709

RRIRSRPPRLPRPRPRPVGDPRP
shrunken log2 fold change: 0.0704

RRIRSRPPRLPRPRPRPVHAPRP
shrunken log2 fold change: 0.214

RRIRSRPPRLPRPRPRPVHHPRP
shrunken log2 fold change: 0.0874

RRIRSRPPRLPRPRPRPVHRPRP
shrunken log2 fold change: -0.0285

RRIRSRPPRLPRPRPRPVIKPRP
shrunken log2 fold change: -0.476

RRIRSRPPRLPRPRPRPVMEPRP
shrunken log2 fold change: -0.0868

RRIRSRPPRLPRPRPRPVMQPRP
shrunken log2 fold change: 0.138

RRIRSRPPRLPRPRPRPVMTPRP
shrunken log2 fold change: -0.0963

RRIRSRPPRLPRPRPRPVPCPRP
shrunken log2 fold change: -0.226

RRIRSRPPRLPRPRPRPVPWPRP
shrunken log2 fold change: 0.212

RRIRSRPPRLPRPRPRPVQYPRP
shrunken log2 fold change: -0.00908

RRIRSRPPRLPRPRPRPVRWPRP
shrunken log2 fold change: 0.893

RRIRSRPPRLPRPRPRPVSCPRP
shrunken log2 fold change: -0.00594

RRIRSRPPRLPRPRPRPVSPPRP
shrunken log2 fold change: 0.155

RRIRSRPPRLPRPRPRPVTGPRP
shrunken log2 fold change: 0.255

RRIRSRPPRLPRPRPRPVTQPRP
shrunken log2 fold change: 0.168

RRIRSRPPRLPRPRPRPVTVPRP
shrunken log2 fold change: -0.057

RRIRSRPPRLPRPRPRPVVMPRP
shrunken log2 fold change: 0.0334

RRIRSRPPRLPRPRPRPVWIPRP
shrunken log2 fold change: 0.0104

RRIRSRPPRLPRPRPRPWDAPRP
shrunken log2 fold change: 0.069

RRIRSRPPRLPRPRPRPWEPPRP
shrunken log2 fold change: -0.029

RRIRSRPPRLPRPRPRPWFNPRP
shrunken log2 fold change: -0.227

RRIRSRPPRLPRPRPRPWIDPRP
shrunken log2 fold change: -0.615

RRIRSRPPRLPRPRPRPWKFPRP
shrunken log2 fold change: -0.176

RRIRSRPPRLPRPRPRPWMQPRP
shrunken log2 fold change: -0.0251

RRIRSRPPRLPRPRPRPWMWPRP
shrunken log2 fold change: -0.0985

RRIRSRPPRLPRPRPRPWMYPRP
shrunken log2 fold change: -0.0974

RRIRSRPPRLPRPRPRPWPQPRP
shrunken log2 fold change: 0.0548

RRIRSRPPRLPRPRPRPWTFPRP
shrunken log2 fold change: -0.199

RRIRSRPPRLPRPRPRPWVQPRP
shrunken log2 fold change: 0.127

RRIRSRPPRLPRPRPRPWWPPRP
shrunken log2 fold change: 0.0626

RRIRSRPPRLPRPRPRPWWSPRP
shrunken log2 fold change: -0.237

RRIRSRPPRLPRPRPRPWYSPRP
shrunken log2 fold change: -0.257

RRIRSRPPRLPRPRPRPWYYPRP
shrunken log2 fold change: -0.518

RRIRSRPPRLPRPRPRPYAFPRP
shrunken log2 fold change: -0.487

RRIRSRPPRLPRPRPRPYAHPRP
shrunken log2 fold change: -0.131

RRIRSRPPRLPRPRPRPYASPRP
shrunken log2 fold change: 0.0607

RRIRSRPPRLPRPRPRPYCYPRP
shrunken log2 fold change: -0.0398

RRIRSRPPRLPRPRPRPYDCPRP
shrunken log2 fold change: -0.0167

RRIRSRPPRLPRPRPRPYDHPRP
shrunken log2 fold change: -0.795

RRIRSRPPRLPRPRPRPYECPRP
shrunken log2 fold change: -0.356

RRIRSRPPRLPRPRPRPYEIPRP
shrunken log2 fold change: -0.0474

RRIRSRPPRLPRPRPRPYEMPRP
shrunken log2 fold change: -0.234

RRIRSRPPRLPRPRPRPYEPPRP
shrunken log2 fold change: -0.619

RRIRSRPPRLPRPRPRPYFCPRP
shrunken log2 fold change: -0.354

RRIRSRPPRLPRPRPRPYFMPRP
shrunken log2 fold change: -0.848

RRIRSRPPRLPRPRPRPYHNPRP
shrunken log2 fold change: -1.22

RRIRSRPPRLPRPRPRPYHQPRP
shrunken log2 fold change: -0.203

RRIRSRPPRLPRPRPRPYHYPRP
shrunken log2 fold change: -0.527

RRIRSRPPRLPRPRPRPYIVPRP
shrunken log2 fold change: -0.646

RRIRSRPPRLPRPRPRPYIYPRP
shrunken log2 fold change: -0.778

RRIRSRPPRLPRPRPRPYKWPRP
shrunken log2 fold change: -0.18

RRIRSRPPRLPRPRPRPYLNPRP
shrunken log2 fold change: -0.564

RRIRSRPPRLPRPRPRPYLYPRP
shrunken log2 fold change: -0.065

RRIRSRPPRLPRPRPRPYMTPRP
shrunken log2 fold change: -0.586

RRIRSRPPRLPRPRPRPYNDPRP
shrunken log2 fold change: -0.41

RRIRSRPPRLPRPRPRPYNMPRP
shrunken log2 fold change: -0.817

RRIRSRPPRLPRPRPRPYNYPRP
shrunken log2 fold change: -0.494

RRIRSRPPRLPRPRPRPYPGPRP
shrunken log2 fold change: -0.199

RRIRSRPPRLPRPRPRPYPNPRP
shrunken log2 fold change: 0.00334

RRIRSRPPRLPRPRPRPYPRPRP
shrunken log2 fold change: -0.45

RRIRSRPPRLPRPRPRPYSAPRP
shrunken log2 fold change: -0.0105

RRIRSRPPRLPRPRPRPYSKPRP
shrunken log2 fold change: -0.994

RRIRSRPPRLPRPRPRPYTIPRP
shrunken log2 fold change: -0.808

RRIRSRPPRLPRPRPRPYTQPRP
shrunken log2 fold change: -0.184

RRIRSRPPRLPRPRPRPYYFPRP
shrunken log2 fold change: -0.664

RRIRTRPPRLPRPRPRPACQPRP
shrunken log2 fold change: 0.0771

RRIRTRPPRLPRPRPRPACYPRP
shrunken log2 fold change: -0.0845

RRIRTRPPRLPRPRPRPADRPRP
shrunken log2 fold change: -0.108

RRIRTRPPRLPRPRPRPADVPRP
shrunken log2 fold change: -0.391

RRIRTRPPRLPRPRPRPAEGPRP
shrunken log2 fold change: 0.164

RRIRTRPPRLPRPRPRPAFPPRP
shrunken log2 fold change: 0.0262

RRIRTRPPRLPRPRPRPAGSPRP
shrunken log2 fold change: -0.000597
